Experimental data reported in article PMC10786891, “Massively parallel profiling of RNA-targeting CRISPR-Cas13d”.

T1: EsCas13d, nuclease-dead (Eubacterium siraeum, UniProt B0MS50, R295A;H300A;R849A;H854A)
T1 sequence: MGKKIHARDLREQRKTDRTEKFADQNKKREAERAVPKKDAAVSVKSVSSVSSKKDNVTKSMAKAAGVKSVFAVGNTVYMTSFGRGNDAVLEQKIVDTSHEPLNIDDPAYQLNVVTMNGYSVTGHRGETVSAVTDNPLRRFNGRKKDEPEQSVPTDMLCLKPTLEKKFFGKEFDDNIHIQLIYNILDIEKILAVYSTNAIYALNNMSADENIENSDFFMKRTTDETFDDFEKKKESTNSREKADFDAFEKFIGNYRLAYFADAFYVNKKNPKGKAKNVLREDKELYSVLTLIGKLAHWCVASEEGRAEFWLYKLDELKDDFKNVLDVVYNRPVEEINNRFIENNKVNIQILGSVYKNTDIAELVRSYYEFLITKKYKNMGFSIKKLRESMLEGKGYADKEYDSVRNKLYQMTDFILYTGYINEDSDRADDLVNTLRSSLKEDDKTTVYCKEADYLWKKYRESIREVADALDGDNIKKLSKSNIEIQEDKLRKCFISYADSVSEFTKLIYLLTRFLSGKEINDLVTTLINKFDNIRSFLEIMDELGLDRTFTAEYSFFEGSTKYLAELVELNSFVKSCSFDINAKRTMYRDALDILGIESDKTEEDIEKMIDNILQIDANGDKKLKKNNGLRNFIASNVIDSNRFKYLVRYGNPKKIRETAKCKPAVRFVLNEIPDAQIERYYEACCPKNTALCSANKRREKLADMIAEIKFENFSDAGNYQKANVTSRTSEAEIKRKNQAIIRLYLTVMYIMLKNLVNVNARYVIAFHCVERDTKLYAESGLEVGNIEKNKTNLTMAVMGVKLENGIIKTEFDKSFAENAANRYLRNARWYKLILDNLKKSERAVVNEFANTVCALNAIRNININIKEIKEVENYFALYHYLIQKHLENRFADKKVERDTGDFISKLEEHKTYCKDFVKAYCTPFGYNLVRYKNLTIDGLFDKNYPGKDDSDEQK

B1: target 1 MT 5'PFS GAC 3'PFS AAU (mixed)
RNA 1: CACCCGUGCAAAAAUGCAGGGGUCUAAAACUGAGCGGAUAACCUCUCUAUGG
RNA 2: GGGAAUGGAUCCACAUCUACGAAUUCGACCCAUAGAGAGGUUAUCCGCUCAAAUAGAUCGGAAGAGCACACGU
B2: target 1 MT 5'PFS GGG 3'PFS GGU (mixed)
RNA 1: CACCCGUGCAAAAAUGCAGGGGUCUAAAACUGAGCGGAUAACCUCUCUAUGG
RNA 2: GGGAAUGGAUCCACAUCUACGAAUUCGGGCCAUAGAGAGGUUAUCCGCUCAGGUAGAUCGGAAGAGCACACGU
B3: target 1 MT 5'PFS ACU 3'PFS UUG (mixed)
RNA 1: CACCCGUGCAAAAAUGCAGGGGUCUAAAACUGAGCGGAUAACCUCUCUAUGG
RNA 2: GGGAAUGGAUCCACAUCUACGAAUUCACUCCAUAGAGAGGUUAUCCGCUCAUUGAGAUCGGAAGAGCACACGU
B4: target 1 MT 5'PFS ACU 3'PFS UUA (mixed)
RNA 1: CACCCGUGCAAAAAUGCAGGGGUCUAAAACUGAGCGGAUAACCUCUCUAUGG
RNA 2: GGGAAUGGAUCCACAUCUACGAAUUCACUCCAUAGAGAGGUUAUCCGCUCAUUAAGAUCGGAAGAGCACACGU
B5: target 1 MT 5'PFS UCG 3'PFS UAC (mixed)
RNA 1: CACCCGUGCAAAAAUGCAGGGGUCUAAAACUGAGCGGAUAACCUCUCUAUGG
RNA 2: GGGAAUGGAUCCACAUCUACGAAUUCUCGCCAUAGAGAGGUUAUCCGCUCAUACAGAUCGGAAGAGCACACGU
B6: target 1 MT 5'PFS UGU 3'PFS CAA (mixed)
RNA 1: CACCCGUGCAAAAAUGCAGGGGUCUAAAACUGAGCGGAUAACCUCUCUAUGG
RNA 2: GGGAAUGGAUCCACAUCUACGAAUUCUGUCCAUAGAGAGGUUAUCCGCUCACAAAGAUCGGAAGAGCACACGU
B7: target 1 MT 5'PFS GUA 3'PFS AAC (mixed)
RNA 1: CACCCGUGCAAAAAUGCAGGGGUCUAAAACUGAGCGGAUAACCUCUCUAUGG
RNA 2: GGGAAUGGAUCCACAUCUACGAAUUCGUACCAUAGAGAGGUUAUCCGCUCAAACAGAUCGGAAGAGCACACGU
B8: target 1 MT 5'PFS GGG 3'PFS GGC (mixed)
RNA 1: CACCCGUGCAAAAAUGCAGGGGUCUAAAACUGAGCGGAUAACCUCUCUAUGG
RNA 2: GGGAAUGGAUCCACAUCUACGAAUUCGGGCCAUAGAGAGGUUAUCCGCUCAGGCAGAUCGGAAGAGCACACGU
B9: target 1 MT 5'PFS GUA 3'PFS AAG (mixed)
RNA 1: CACCCGUGCAAAAAUGCAGGGGUCUAAAACUGAGCGGAUAACCUCUCUAUGG
RNA 2: GGGAAUGGAUCCACAUCUACGAAUUCGUACCAUAGAGAGGUUAUCCGCUCAAAGAGAUCGGAAGAGCACACGU
B10: target 1 MT 5'PFS GGG 3'PFS GGG (mixed)
RNA 1: CACCCGUGCAAAAAUGCAGGGGUCUAAAACUGAGCGGAUAACCUCUCUAUGG
RNA 2: GGGAAUGGAUCCACAUCUACGAAUUCGGGCCAUAGAGAGGUUAUCCGCUCAGGGAGAUCGGAAGAGCACACGU
B11: target 1 MT 5'PFS GUA 3'PFS AAA (mixed)
RNA 1: CACCCGUGCAAAAAUGCAGGGGUCUAAAACUGAGCGGAUAACCUCUCUAUGG
RNA 2: GGGAAUGGAUCCACAUCUACGAAUUCGUACCAUAGAGAGGUUAUCCGCUCAAAAAGAUCGGAAGAGCACACGU
B12: target 1 MT 5'PFS UAU 3'PFS UUU (mixed)
RNA 1: CACCCGUGCAAAAAUGCAGGGGUCUAAAACUGAGCGGAUAACCUCUCUAUGG
RNA 2: GGGAAUGGAUCCACAUCUACGAAUUCUAUCCAUAGAGAGGUUAUCCGCUCAUUUAGAUCGGAAGAGCACACGU
B13: target 1 MT 5'PFS CAC 3'PFS CCG (mixed)
RNA 1: CACCCGUGCAAAAAUGCAGGGGUCUAAAACUGAGCGGAUAACCUCUCUAUGG
RNA 2: GGGAAUGGAUCCACAUCUACGAAUUCCACCCAUAGAGAGGUUAUCCGCUCACCGAGAUCGGAAGAGCACACGU
B14: target 1 MT 5'PFS UAC 3'PFS CCG (mixed)
RNA 1: CACCCGUGCAAAAAUGCAGGGGUCUAAAACUGAGCGGAUAACCUCUCUAUGG
RNA 2: GGGAAUGGAUCCACAUCUACGAAUUCUACCCAUAGAGAGGUUAUCCGCUCACCGAGAUCGGAAGAGCACACGU
B15: target 1 MT 5'PFS UCG 3'PFS UAA (mixed)
RNA 1: CACCCGUGCAAAAAUGCAGGGGUCUAAAACUGAGCGGAUAACCUCUCUAUGG
RNA 2: GGGAAUGGAUCCACAUCUACGAAUUCUCGCCAUAGAGAGGUUAUCCGCUCAUAAAGAUCGGAAGAGCACACGU
B16: target 1 MT 5'PFS ACU 3'PFS UUU (mixed)
RNA 1: CACCCGUGCAAAAAUGCAGGGGUCUAAAACUGAGCGGAUAACCUCUCUAUGG
RNA 2: GGGAAUGGAUCCACAUCUACGAAUUCACUCCAUAGAGAGGUUAUCCGCUCAUUUAGAUCGGAAGAGCACACGU
B17: target 1 MT 5'PFS AAA 3'PFS UCU (mixed)
RNA 1: CACCCGUGCAAAAAUGCAGGGGUCUAAAACUGAGCGGAUAACCUCUCUAUGG
RNA 2: GGGAAUGGAUCCACAUCUACGAAUUCAAACCAUAGAGAGGUUAUCCGCUCAUCUAGAUCGGAAGAGCACACGU
B18: target 1 MT 5'PFS UCG 3'PFS UAU (mixed)
RNA 1: CACCCGUGCAAAAAUGCAGGGGUCUAAAACUGAGCGGAUAACCUCUCUAUGG
RNA 2: GGGAAUGGAUCCACAUCUACGAAUUCUCGCCAUAGAGAGGUUAUCCGCUCAUAUAGAUCGGAAGAGCACACGU
B19: target 1 MT 5'PFS GCC 3'PFS CCU (mixed)
RNA 1: CACCCGUGCAAAAAUGCAGGGGUCUAAAACUGAGCGGAUAACCUCUCUAUGG
RNA 2: GGGAAUGGAUCCACAUCUACGAAUUCGCCCCAUAGAGAGGUUAUCCGCUCACCUAGAUCGGAAGAGCACACGU
B20: target 1 MT 5'PFS UCC 3'PFS AGA (mixed)
RNA 1: CACCCGUGCAAAAAUGCAGGGGUCUAAAACUGAGCGGAUAACCUCUCUAUGG
RNA 2: GGGAAUGGAUCCACAUCUACGAAUUCUCCCCAUAGAGAGGUUAUCCGCUCAAGAAGAUCGGAAGAGCACACGU
B21: target 1 C6G,U8A (mixed)
RNA 1: CACCCGUGCAAAAAUGCAGGGGUCUAAAACUGAGCGGAUAACCUCUCUAUGG
RNA 2: GGGAAUGGAUCCACAUCUACGAAUUCGUACCAUAGAGAGGUUAACGGCUCACCGAGAUCGGAAGAGCACACGU
B22: target 1 MT 5'PFS GAC 3'PFS AAG (mixed)
RNA 1: CACCCGUGCAAAAAUGCAGGGGUCUAAAACUGAGCGGAUAACCUCUCUAUGG
RNA 2: GGGAAUGGAUCCACAUCUACGAAUUCGACCCAUAGAGAGGUUAUCCGCUCAAAGAGAUCGGAAGAGCACACGU
B23: target 1 insC 3' of 13,insG 3' of 3 (mixed)
RNA 1: CACCCGUGCAAAAAUGCAGGGGUCUAAAACUGAGCGGAUAACCUCUCUAUGG
RNA 2: GGGAAUGGAUCCACAUCUACGAAUUCGUACCAUAGAGAGCGUUAUCCGCUGCACCGAGAUCGGAAGAGCACACGU
B24: target 1 MT 5'PFS GUA 3'PFS AAU (mixed)
RNA 1: CACCCGUGCAAAAAUGCAGGGGUCUAAAACUGAGCGGAUAACCUCUCUAUGG
RNA 2: GGGAAUGGAUCCACAUCUACGAAUUCGUACCAUAGAGAGGUUAUCCGCUCAAAUAGAUCGGAAGAGCACACGU

Molecular target: T1, EsCas13d, nuclease-dead
Assay: crRNA (strand 1, pre-loaded); Mg2+; 40 mM Tris-HCl pH 7.5, 150 mM NaCl, 6 mM MgCl2, 1 mM DTT, 0.1% Tween-20, 0.2 mg/ml BSA; 25 C; 10 min per concentration, then washed
Conditions: tags: His6-TwinStrep-SUMO cleaved; N-terminal SNAP kept (SNAP-Surface 488); label: 3' end held by stalled T7 RNA polymerase

Row | Binder | Kd [nM]
1 | B1 | ~50
2 | B2 | 61 ± 14
3 | B3 | 46 ± 15
4 | B4 | 52.5 ± 21
5 | B5 | 22.5 ± 9
6 | B6 | ~90
7 | B7 | 20.4 ± 1.55
8 | B8 | 26.5 ± 5
9 | B9 | 19.1 ± 1.2
10 | B10 | 65.5 ± 14
11 | B11 | 26.4 ± 3.45
12 | B12 | 31 ± 7.5
13 | B13 | 9.7 ± 2.45
14 | B14 | 14.5 ± 6
15 | B15 | 86.5 ± 38.5
16 | B16 | 39.5 ± 15.5
17 | B17 | 25 ± 5.5
18 | B18 | 27 ± 5.5
19 | B19 | 8.9 ± 3
20 | B20 | ~60
21 | B21 | 13.8 ± 0.6
22 | B22 | 50.5 ± 22.5
23 | B23 | 5.58 ± 0.3
24 | B24 | 17.8 ± 1.5
